Experiment [1] has as its target human MASP-2 (Homo sapiens, UniProt O00187). The note with it: as disclosed in WO2018127719, read-out: inhibitory binding constant (KI) on human MASP-2, cited from earlier work.
Experiment [2] concerns the target rat MASP-2 (Rattus norvegicus, UniProt Q9JJS8). To be noted: as disclosed in WO2018127719; cited from earlier work.
The target in experiment [3] is T1, human MASP-2 catalytic fragment (Homo sapiens, UniProt O00187).
T1 construct: catalytic enzyme fragments containing the three C-terminal domains: CCP1-CCP2-SP; made in house
Put plainly: Surface plasmon resonance kinetics and affinity on immobilized human MASP-2 catalytic fragment. Type of experiment: binding. In general terms: SPR reads the build-up and loss of mass on a sensor chip optically.

Experiment [4] addresses T2, human MASP-2cf (Homo sapiens, UniProt O00187).
T2 construct: catalytic enzyme fragments containing the three C-terminal domains: CCP1-CCP2-SP; made in house
Put plainly: Equilibrium inhibition constant (KI) on human MASP-2 catalytic fragment, Z-L-Lys-SBzl substrate. The format is biochemical.

The target of experiment [5] is T3, human MASP-2 (in normal human serum) (human, UniProt O00187 16-686). Put plainly: cell-based or functional assay.
In experiment [6] the target is T3, human MASP-2 (in normal human serum). Put plainly: cell-based or functional assay. The source holds these as a separate data set.
The target of experiment [7] is rat MASP-2 (in rat serum) (rat, UniProt Q9JJS8 20-685). Put plainly: cell-based or functional assay.
Experiment [8] concerns the target T4, MASP-1 (UniProt P48740 298-699, limits assumed).
T4 sequence (looked up): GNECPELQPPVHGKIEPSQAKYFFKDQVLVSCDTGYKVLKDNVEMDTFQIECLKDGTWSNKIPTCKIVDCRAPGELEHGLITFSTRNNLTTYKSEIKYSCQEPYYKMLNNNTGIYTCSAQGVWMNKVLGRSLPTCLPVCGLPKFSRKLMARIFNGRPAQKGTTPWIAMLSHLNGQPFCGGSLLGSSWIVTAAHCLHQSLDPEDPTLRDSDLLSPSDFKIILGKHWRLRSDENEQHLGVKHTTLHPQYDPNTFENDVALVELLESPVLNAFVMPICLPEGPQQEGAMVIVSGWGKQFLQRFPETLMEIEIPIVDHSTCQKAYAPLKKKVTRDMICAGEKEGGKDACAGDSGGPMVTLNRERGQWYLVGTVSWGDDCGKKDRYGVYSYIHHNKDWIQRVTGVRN
Put plainly: cell-based or functional assay.

Experiment [9] concerns the target fIXa (human, UniProt P00740 47-461). Put plainly: cell-based or functional assay.
Experiment [10] addresses fXIa (human, UniProt P03951 19-625). Put plainly: cell-based or functional assay.
Experiment [11] deals with T5, fXIIa (human, UniProt P00748 20-615, limits assumed).
T5 sequence (looked up): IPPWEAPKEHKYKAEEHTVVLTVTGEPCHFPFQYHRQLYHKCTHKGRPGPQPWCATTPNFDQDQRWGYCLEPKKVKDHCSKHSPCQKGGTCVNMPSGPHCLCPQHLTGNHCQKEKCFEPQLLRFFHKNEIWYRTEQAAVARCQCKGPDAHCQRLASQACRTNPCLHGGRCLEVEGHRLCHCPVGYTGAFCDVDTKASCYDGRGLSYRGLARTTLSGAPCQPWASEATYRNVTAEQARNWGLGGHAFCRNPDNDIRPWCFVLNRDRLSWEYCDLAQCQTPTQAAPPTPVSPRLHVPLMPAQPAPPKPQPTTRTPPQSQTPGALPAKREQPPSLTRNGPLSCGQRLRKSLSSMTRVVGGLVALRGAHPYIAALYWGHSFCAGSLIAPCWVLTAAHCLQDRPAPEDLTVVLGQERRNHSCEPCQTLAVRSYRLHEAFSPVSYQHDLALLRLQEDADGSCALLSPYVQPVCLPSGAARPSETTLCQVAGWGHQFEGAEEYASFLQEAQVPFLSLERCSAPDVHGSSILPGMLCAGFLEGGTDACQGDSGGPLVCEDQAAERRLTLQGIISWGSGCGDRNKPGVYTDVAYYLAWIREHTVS
Put plainly: cell-based or functional assay.

In experiment [12] the target is T6, human MASP-2cf CCP1-CCP2-SP (human, UniProt O00187 298-686, limits assumed).
T6 construct: domain: CCP1-CCP2-SP; also called human MASP-2 catalytic fragment
Put plainly: SPR, target immobilised.

Experiment [13] deals with T7, rat MASP-2cf CCP1-CCP2-SP (rat, UniProt Q9JJS8 298-685).
T7 construct: range 298-685; Mw 42309 Da; also called rat MASP-2 catalytic fragment
Put plainly: SPR, target immobilised.

Experiment [14] concerns the target T6, human MASP-2cf CCP1-CCP2-SP. Put plainly: enzyme inhibition, tight-binding fit.
Experiment [15] deals with T7, rat MASP-2cf CCP1-CCP2-SP. Put plainly: enzyme inhibition, tight-binding fit.

Consider 10 molecules from patent publication US20260098080A1, “A MODIFIED PROTEIN SCAFFOLD AND USE THEREOF” (EVOLVERITAS BIOTECHNOLÓGIAI KORLÁTOLT FELELOSSÉGU TÁRSASÁG, priority 2022, published 2026).

Where two headings read alike, the source gives them in different places. Bridges are numbered along the chain shown (N, C = ends). Where no end group is shown, it is not given here.

T7 sequence (Q9JJS8 other isoform, or with tags, fused parts or gaps limits assumed, form in doubt): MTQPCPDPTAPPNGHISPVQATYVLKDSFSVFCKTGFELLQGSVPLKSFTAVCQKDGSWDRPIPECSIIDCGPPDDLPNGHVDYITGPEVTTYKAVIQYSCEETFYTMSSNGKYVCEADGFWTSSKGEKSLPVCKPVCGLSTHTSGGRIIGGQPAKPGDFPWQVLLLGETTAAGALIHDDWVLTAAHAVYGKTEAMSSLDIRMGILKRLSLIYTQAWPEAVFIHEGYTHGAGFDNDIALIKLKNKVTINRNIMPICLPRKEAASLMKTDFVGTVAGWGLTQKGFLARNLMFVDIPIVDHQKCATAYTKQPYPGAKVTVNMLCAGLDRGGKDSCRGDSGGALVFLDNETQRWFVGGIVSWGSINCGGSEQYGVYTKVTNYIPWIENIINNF
fIXa, sequence (P00740 47-461 limits assumed): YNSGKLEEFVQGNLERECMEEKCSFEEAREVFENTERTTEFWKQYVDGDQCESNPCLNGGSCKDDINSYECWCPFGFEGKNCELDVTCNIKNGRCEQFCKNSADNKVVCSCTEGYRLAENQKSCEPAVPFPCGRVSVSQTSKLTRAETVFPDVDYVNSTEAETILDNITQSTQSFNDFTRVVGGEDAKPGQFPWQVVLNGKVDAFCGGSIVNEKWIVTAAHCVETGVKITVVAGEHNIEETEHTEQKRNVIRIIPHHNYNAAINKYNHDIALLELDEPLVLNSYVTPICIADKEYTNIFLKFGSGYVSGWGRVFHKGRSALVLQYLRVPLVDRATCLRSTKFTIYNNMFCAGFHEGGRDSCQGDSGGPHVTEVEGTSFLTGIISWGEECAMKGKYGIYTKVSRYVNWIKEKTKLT
fXIa, sequence (P03951 19-625 limits assumed): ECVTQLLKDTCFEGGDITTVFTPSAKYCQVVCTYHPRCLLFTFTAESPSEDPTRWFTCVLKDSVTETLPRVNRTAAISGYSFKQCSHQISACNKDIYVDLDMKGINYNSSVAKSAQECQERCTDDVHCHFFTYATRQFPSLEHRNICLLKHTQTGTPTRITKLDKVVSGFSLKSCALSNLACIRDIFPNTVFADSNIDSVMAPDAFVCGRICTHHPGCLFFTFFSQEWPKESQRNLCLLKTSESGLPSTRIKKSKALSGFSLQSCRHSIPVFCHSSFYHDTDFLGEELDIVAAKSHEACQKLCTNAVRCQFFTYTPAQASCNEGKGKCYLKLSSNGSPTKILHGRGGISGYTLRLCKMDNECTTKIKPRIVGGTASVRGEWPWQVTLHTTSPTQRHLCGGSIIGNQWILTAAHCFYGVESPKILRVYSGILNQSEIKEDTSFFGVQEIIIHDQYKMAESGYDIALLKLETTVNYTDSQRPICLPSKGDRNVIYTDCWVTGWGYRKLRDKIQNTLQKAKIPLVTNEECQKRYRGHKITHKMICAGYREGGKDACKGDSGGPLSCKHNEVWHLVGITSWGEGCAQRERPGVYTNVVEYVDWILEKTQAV
T6 sequence (O00187 298-686 limits assumed): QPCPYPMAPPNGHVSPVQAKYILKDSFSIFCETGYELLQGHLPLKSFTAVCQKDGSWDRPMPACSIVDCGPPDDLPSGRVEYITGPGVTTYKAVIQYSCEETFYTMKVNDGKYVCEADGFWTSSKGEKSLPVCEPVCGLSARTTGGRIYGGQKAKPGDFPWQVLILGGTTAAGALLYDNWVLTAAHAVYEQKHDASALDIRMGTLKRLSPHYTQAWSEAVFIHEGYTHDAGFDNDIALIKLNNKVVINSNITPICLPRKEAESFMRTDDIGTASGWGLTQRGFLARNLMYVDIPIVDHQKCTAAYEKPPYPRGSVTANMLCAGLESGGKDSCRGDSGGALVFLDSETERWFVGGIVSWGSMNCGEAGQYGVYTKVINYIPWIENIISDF
rat MASP-2 (in rat serum), sequence (Q9JJS8 20-685 limits assumed): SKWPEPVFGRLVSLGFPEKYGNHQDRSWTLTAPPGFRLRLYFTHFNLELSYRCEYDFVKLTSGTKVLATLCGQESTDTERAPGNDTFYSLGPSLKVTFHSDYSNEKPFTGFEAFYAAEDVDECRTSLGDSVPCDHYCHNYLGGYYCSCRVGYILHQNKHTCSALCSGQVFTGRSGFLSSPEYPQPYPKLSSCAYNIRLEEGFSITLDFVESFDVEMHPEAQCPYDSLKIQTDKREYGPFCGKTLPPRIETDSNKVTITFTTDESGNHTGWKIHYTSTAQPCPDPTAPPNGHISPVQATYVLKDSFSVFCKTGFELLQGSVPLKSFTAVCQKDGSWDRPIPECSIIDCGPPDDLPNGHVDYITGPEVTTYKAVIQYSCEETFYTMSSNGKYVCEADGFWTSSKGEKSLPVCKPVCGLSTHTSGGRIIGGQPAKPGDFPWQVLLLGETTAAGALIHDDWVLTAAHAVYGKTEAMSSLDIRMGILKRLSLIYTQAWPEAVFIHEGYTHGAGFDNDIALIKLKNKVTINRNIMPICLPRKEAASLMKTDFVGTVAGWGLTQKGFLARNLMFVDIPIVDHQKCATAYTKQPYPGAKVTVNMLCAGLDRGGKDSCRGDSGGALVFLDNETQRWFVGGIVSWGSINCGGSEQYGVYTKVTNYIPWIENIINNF
human MASP-2, sequence (O00187 16-686): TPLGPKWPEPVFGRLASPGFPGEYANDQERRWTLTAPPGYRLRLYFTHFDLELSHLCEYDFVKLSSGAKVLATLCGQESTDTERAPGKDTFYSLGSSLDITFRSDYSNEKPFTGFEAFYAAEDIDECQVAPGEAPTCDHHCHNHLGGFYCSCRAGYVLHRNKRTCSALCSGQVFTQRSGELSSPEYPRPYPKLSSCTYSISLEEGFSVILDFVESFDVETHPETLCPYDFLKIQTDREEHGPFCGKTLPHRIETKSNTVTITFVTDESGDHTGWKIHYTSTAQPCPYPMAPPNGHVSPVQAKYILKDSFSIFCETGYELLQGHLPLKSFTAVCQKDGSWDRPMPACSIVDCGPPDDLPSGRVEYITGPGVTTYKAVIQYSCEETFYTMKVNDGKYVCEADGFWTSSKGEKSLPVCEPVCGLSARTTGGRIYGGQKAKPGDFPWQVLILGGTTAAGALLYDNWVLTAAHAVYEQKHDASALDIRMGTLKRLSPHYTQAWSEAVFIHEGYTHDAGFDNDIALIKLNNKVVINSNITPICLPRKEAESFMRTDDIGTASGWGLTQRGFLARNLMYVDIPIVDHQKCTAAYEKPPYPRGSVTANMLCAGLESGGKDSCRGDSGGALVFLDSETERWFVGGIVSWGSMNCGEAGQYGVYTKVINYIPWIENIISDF
T3 sequence (O00187 16-686 limits assumed): as the sequence (O00187 16-686) above
rat MASP-2, sequence (Q9JJS8 20-685): as the sequence (Q9JJS8 20-685 limits assumed) above

With “KPDFCFLEEDPGPCRAVKRRYFYNNQTKQCERFKYGGCLGNMNNFETLEECKNICEDG (disulfide 5-55, 14-38, 30-51) [EVO2]”, the Ki was 7.9 nM in experiment [1] (listed as WO2018127719 with SEQ ID NO: 14), about 7 nM in experiment [1] and about 7 nM in [2].

In turn, “KPDFCFLENDPGLCRAAAVRYFYNNQTKQCERFYYGGCLGNMNNFVTLEECKNICEDG (disulfide 5-55, 14-38, 30-51) [EVO222]” gave a Kd in experiment [3] of 0.045 nM.

With “KPDFCFLENDPGPCRAAAVRYFYNNQTKQCERFYYGGCLGNMNNFVTLEECKNICEDG (disulfide 5-55, 14-38, 30-51) [EVO223]”, the inhibition constant Ki in experiment [4] (5 nM enzyme, read-out: KI values human MASP-2cf) worked out at 0.17 ± 0.07 nM.

With “KPDFCFLENDPGPCRAAKRRYFYNNQTKQCERFYYGGCLGNMNNFVTLEECKNICEDG (disulfide 5-55, 14-38, 30-51) [EVO22a]”, in [3] (Human MASP-2 catalytic fragment, SPR, read-out: KD), the Kd amounted to 0.045 nM.

For “KPDFCFLENDPGPCRALKRRYFYNNQTKQCERFYYGGCFGNMNNFETLEECKNICEDG (disulfide 5-55, 14-38, 30-51) [EVO25]”, in experiment [4], the inhibition constant Ki amounted to 0.17 ± 0.04 nM.

In the case of “SEQ ID NO: 11 in WO2018127719: highest efficiency human MASP-2 inhibiting Kunitz domain compound of WO2018127719, canonical inhibitory loop sequence GFCRAVKR (KPDFCFLENDPGPCRALKRRYFYNNQTKQCERFYYGGCFGNMNNFETLEECKNICEDG)”, the Ki is 2 nM in experiment [1] and 640 nM in [2].

B1: EVO21 (designed binder)
chain: KPDFCFLENDPGPCRALKRRYFYNNQTKQCERFGYGGCLGNMNNFVTLEECKNICEDG
modifications: not fully specified; ends and bridges not checked
notes: Modified TFPI-D2 Kunitz domain; made as m1
As to B1, the “Relative potency (relative human lectin pathway inhibitory efficiency compared to EVO2)” value in experiment [5] is 24 fold relative to EVO2. In experiment [6], the “IC50, lectin pathway C4 deposition, human serum” value (shortened to “IC50 … human serum”) worked out at 5.7 nM and the “Relative potency, lectin pathway, human serum” value (“Relative potency … human serum” below) was 24.1 fold vs EVO2. In addition, in experiment [7], the “IC50, lectin pathway C4 deposition, rat serum” value (“IC50 … rat serum” below) worked out at 10.9 nM and the “Relative potency, lectin pathway, rat serum” value (“Relative potency … rat serum” below) came out at 9.8 fold vs EVO2. For the same molecule, the “IC50, enzyme activity on synthetic substrate” value (from here on “IC50, enzyme activity”) in [8] was determined as 13 µM. The “IC50, enzyme activity” value in experiment [9] stood at 28 µM. The “IC50, enzyme activity” value in [10] stood at 0.8 µM. Besides, in experiment [11], the “IC50, enzyme activity” value worked out at 10.5 µM. In experiment [12], this molecule displayed a Kd of 0.037 nM, a Relative affinity of 48 fold vs EVO2, a koff of 4.92e-05 s⁻¹ and a kon of 1.32e+06 M⁻¹ s⁻¹. In addition, in [13], the Kd is 0.082 nM, the Relative affinity was 44.1 fold vs EVO2, the koff came out at 4.49e-05 s⁻¹ and the kon is 545000 M⁻¹ s⁻¹.

B2: EVO23 (designed binder)
chain: KPDFCFLENDPGPCRALKRRYFYNNQTKQCERFYYGGCFGNMNNFVTLEECKNICEDG
modifications: not fully specified; cysteine pairing not given here
notes: as for B1
Regarding B2, in experiment [6], the “IC50 … human serum” value was determined as 2.9 nM and the “Relative potency … human serum” value is 47.1 fold vs EVO2. In [7], the “IC50 … rat serum” value came out at 8.1 nM and the “Relative potency … rat serum” value was determined as 13.1 fold vs EVO2. Further, the “IC50, enzyme activity” value in experiment [8] came out at 6.5 µM. Moreover, the “IC50, enzyme activity” value in [9] turned out to be 2.6 µM. Also, in experiment [10], the “IC50, enzyme activity” value is 0.5 µM. Besides, the “IC50, enzyme activity” value in experiment [11] was 3.3 µM. Moreover, in experiment [12], binding was characterised by a dissociation constant (Kd) of 0.094 nM, the Relative affinity worked out at 19.1 fold vs EVO2, the koff amounted to 0.000197 s⁻¹ and the kon came to 2.1e+06 M⁻¹ s⁻¹. In experiment [13], this molecule registered a Kd of 0.674 nM, a Relative affinity of 5.4 fold vs EVO2, a koff of 0.000662 s⁻¹ and a kon of 982000 M⁻¹ s⁻¹.

B3: EVO24 (designed binder)
chain: KPDFCFLENDPGPCRALKRRYFYNNQTKQCERFYYGGCLGNMNNFETLEECKNICEDG
modifications: not fully specified; cysteine pairing not given here
notes: as for B1
With B3, in experiment [6], the “IC50 … human serum” value came out at 7.6 nM and the “Relative potency … human serum” value stood at 18.1 fold vs EVO2. For the same molecule, in experiment [7], the “IC50 … rat serum” value was 6.6 nM and the “Relative potency … rat serum” value came to 16.2 fold vs EVO2. Moreover, the “IC50, enzyme activity” value in [8] turned out to be 9.5 µM. Besides, the “IC50, enzyme activity” value in experiment [9] is 123 µM. Also, in [10], the “IC50, enzyme activity” value was determined as 0.5 µM. Moreover, the “IC50, enzyme activity” value in experiment [11] is 16.1 µM. In experiment [12], this molecule returned a dissociation constant (Kd) of 0.276 nM, a Relative affinity of 6.5 fold vs EVO2, a koff of 0.000622 s⁻¹ and an association rate constant (kon) of 2.25e+06 M⁻¹ s⁻¹. Moreover, in experiment [13], the Kd was 0.289 nM, the Relative affinity is 12.6 fold vs EVO2, the koff is 0.000327 s⁻¹ and the on-rate (kon) turned out to be 1.13e+06 M⁻¹ s⁻¹. Moreover, the affinity in experiment [14] corresponds to a Ki of 0.34 nM. This molecule gave a Ki in experiment [15] of 0.36 nM.

B4: EVO214 (designed binder)
chain: KPDFCFLENDPGPCRALKLRYFYNNQTKQCERFGYGGCLGNMNNFVTLEECKNICEDG
modifications: not fully specified; ends and bridges not checked
notes: as for B1
On to B4, for which, in [6], the “IC50 … human serum” value stood at 4.3 nM and the “Relative potency … human serum” value is 32.4 fold vs EVO2. Further, in [7], the “IC50 … rat serum” value came out at 11.2 nM and the “Relative potency … rat serum” value was found to be 9.5 fold vs EVO2. Moreover, the “IC50, enzyme activity” value in experiment [8] amounted to 9.6 µM. Besides, the “IC50, enzyme activity” value in experiment [9] is 24 µM. The “IC50, enzyme activity” value in experiment [10] was 0.2 µM. In addition, the “IC50, enzyme activity” value in [11] was 3.7 µM. Also, in experiment [12], the dissociation constant (Kd) stood at 0.038 nM, the Relative affinity came to 47.6 fold vs EVO2, the koff amounted to 4.78e-05 s⁻¹ and the on-rate (kon) stood at 1.27e+06 M⁻¹ s⁻¹. In experiment [13], this molecule registered a Kd of 0.117 nM, a Relative affinity of 31 fold vs EVO2, a koff of 7.19e-05 s⁻¹ and an association rate constant (kon) of 614000 M⁻¹ s⁻¹.

In general, Ki refers to a dissociation constant, usually derived from enzyme kinetics or from competition with a known ligand. For orientation: Kd means the equilibrium constant for the complex coming apart. As usually defined, the koff is the rate constant with which the complex falls apart. Read a low koff as a long-lived complex. In general, kon refers to the rate constant with which the complex forms. A higher kon goes with faster complex formation.
